In assay [1] the target is T1, FL_Reg1 (full-length human Regnase-1) phosphorylation by TBK1 (Homo sapiens, UniProt Q5D1E8).
T1 construct: made in house; host or cells: Expi293 cells
T1 sequence (Q5D1E8 1-599): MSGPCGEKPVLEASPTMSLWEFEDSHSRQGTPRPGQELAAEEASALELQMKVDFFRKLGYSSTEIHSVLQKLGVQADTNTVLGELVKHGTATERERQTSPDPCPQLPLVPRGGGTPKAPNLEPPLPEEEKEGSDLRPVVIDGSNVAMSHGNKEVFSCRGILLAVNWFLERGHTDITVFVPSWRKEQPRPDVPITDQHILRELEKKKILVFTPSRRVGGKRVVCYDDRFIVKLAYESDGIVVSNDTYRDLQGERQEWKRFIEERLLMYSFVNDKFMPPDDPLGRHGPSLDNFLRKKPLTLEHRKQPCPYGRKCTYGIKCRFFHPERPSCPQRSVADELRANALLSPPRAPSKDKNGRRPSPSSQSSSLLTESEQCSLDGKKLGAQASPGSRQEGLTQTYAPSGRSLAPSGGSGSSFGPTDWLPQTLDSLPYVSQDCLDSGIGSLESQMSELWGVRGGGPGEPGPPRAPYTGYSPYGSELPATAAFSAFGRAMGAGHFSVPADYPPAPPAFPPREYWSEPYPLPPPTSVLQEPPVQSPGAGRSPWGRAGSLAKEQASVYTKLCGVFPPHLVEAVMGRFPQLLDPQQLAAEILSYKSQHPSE
In words: Regnase-1 phosphorylation inhibition by compounds (AlphaScreen), TBK1, full-length Regnase-1. Format: biochemical. Conditions: Table 13; phosphorylation by TBK1; read-out: Phosphorylation inhibition FL_Reg1, 50% inhibition concentration (TBK1). From the text:
(§1) The full-length sequence of human Regnase-1 (UniProt ID: Q5D1E8) was used to prepare a construct having a FLAG tag on the N-terminal side and a recognition sequence for biotin ligase BirA on the C-terminal side (FL_Reg1) as a target protein. The above-mentioned Regnase-1 was expressed in mammalian Expi293 cells, purified with FLAG M2 agarose, and isolated by gel filtration chromatography. When biotinylation was required, methods from nonpatent documents (BMC biotechnology, 2008,8,41; and Protein Science, 1999,8,921-929) were used. […]
(§2) Using Kinase assay buffer III (manufactured by SignalChem) supplemented with 2 mM DTT, 100 μM sodium vanadate, and 2 mM manganese chloride, kinase (IKKβ (manufactured by SignalChem) or TBK1 (manufactured by SignalChem)) and Regnase-1 were reacted in the presence of 10 μM ATP at room temperature for 2 hours to perform a phosphorylation reaction.
(§3) Phosphorylated Regnase-1 was detected by the AlphaScreen system. After each of the above-mentioned phosphorylated Regnase-1 antibodies was added and reacted at room temperature for one hour, anti-FLAG AlphaLISA Acceptor Beads (manufactured by PerkinElmer) and Protein A AlphaScreen Donor Beads (manufactured by PerkinElmer) were added, and EnVision (manufactured by PerkinElmer) was used to measure the excited luminescence. As a result, phosphorylated Regnase-1 produced by the phosphorylation reaction by kinase was specifically detected, and signals were confirmed to be enhanced in a manner dependent on Regnase-1 and kinase concentrations (FIG. 24).
(§4) After mixing 2 nM of the above-mentioned Regnase-1 and the compound, phosphorylated Regnase-1 produced by the phosphorylation reaction was detected by the AlphaScreen system. As the results, the inhibition rate was calculated from the signals obtained when adding the compound at each concentration, by defining the signal obtained with Regnase-1 alone to be 100% inhibition rate, and the signal obtained when the same amount of solvent (DMSO) is added in place of the compound as 0% inhibition rate. The 50% inhibition concentration (μM) was calculated from the obtained dose response curve (Table 11).
For orientation: In Alpha technology, singlet oxygen from a donor bead excites a nearby acceptor bead.

For assay [2], the target named is T2, Reg1_301-599 (amino acids 301-599 of human Regnase-1) phosphorylation by TBK1 (Homo sapiens, UniProt Q5D1E8).
T2 construct: made in house; host or cells: Expi293 cells
T2 sequence (Q5D1E8 301-599): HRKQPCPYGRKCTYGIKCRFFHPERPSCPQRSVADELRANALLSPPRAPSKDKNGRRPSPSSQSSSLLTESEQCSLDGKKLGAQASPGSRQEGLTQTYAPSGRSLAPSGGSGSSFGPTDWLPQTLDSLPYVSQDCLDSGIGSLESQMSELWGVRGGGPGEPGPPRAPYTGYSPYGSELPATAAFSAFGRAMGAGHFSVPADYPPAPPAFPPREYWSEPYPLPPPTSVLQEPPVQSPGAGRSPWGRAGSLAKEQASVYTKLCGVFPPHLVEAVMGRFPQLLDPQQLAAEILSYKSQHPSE
In words: Regnase-1 phosphorylation inhibition by compounds (AlphaScreen), TBK1, C-terminal Regnase-1. Format: biochemical. The settings on record: Table 13, read-out: Phosphorylation inhibition Reg1_301-599, 50% inhibition concentration (TBK1). How it is done:
Among the full-length human Regnase-1 sequence, the 1st to 546th amino acid sequence was prepared and made into a construct having a FLAG tag on the N-terminal side and a biotin ligase BirA recognition sequence on the C-terminal side (herein, a Regnase-1 lacking the C-terminal domain of Regnase-1 (amino acids 547 to 599 in the case of SEQ ID NO: 2) is referred to as “ΔCTD_Reg1”. “ΔCTD_Reg1” is different from “Regnase-1ΔCTD”, which is a C-terminal domain deletion variant resulting from a frameshift mutation caused by a 1 bp deletion at codon 517, as prepared in Example 13). In addition, the sequence from amino acids 301 to 599 of the full-length human Regnase-1 sequence was designated as C-terminal Regnase-1, and a construct having a FLAG tag on the N-terminal side and a recognition sequence for biotin ligase BirA on the C-terminal side was prepared (Reg1_301-599). The above-mentioned Regnase-1 was expressed in mammalian Expi293 cells, purified with FLAG M2 agarose, and isolated by gel filtration chromatography. When biotinylation was required, methods of nonpatent documents (BMC biotechnology, 2008,8,41; and Protein Science, 1999,8,921-929) were used.
as §2, §3, §4

The target of assay [3] is T3, FL_Reg1 (full-length human Regnase-1) phosphorylation by IKKβ (Homo sapiens, UniProt Q5D1E8).
T3 construct: made in house; host or cells: Expi293 cells
T3 sequence (Q5D1E8 1-599): T1 sequence (Q5D1E8 1-599)
As to the kind of experiment: Regnase-1 phosphorylation inhibition by compounds (AlphaScreen), IKKβ, full-length Regnase-1. Format: biochemical. Conditions: Table 14; phosphorylation by IKKβ; read-out: Phosphorylation inhibition FL_Reg1, 50% inhibition concentration (IKKβ).
Description: as §1, §2, §3, §4

The target of assay [4] is T4, binding between TBK1 and full-length Regnase-1 (FL_Reg1) (Homo sapiens, UniProt Q5D1E8).
T4 construct: made in house; host or cells: Expi293 cells
T4 sequence (Q5D1E8 1-599): T1 sequence (Q5D1E8 1-599)
As to the kind of experiment: Inhibition of kinase-Regnase-1 binding by the compounds (AlphaScreen), TBK1. The settings on record: Table 13; binding between TBK1 and Regnase-1; read-out: Binding inhibition FL_Reg1, 50% inhibition concentration (TBK1). How it is done:
(§5) As a target protein, a construct having a FLAG tag on the N-terminal side and a recognition sequence for biotin ligase BirA on the C-terminal side of the full-length sequence of human Regnase-1 (UniProt ID: Q5D1E8) was prepared (FL_Reg1). The above-mentioned Regnase-1 was expressed in mammalian Expi293 cells, purified with FLAG M2 agarose, and isolated by gel filtration chromatography. When biotinylation was required, methods from nonpatent documents (BMC biotechnology, 2008,8,41; and Protein Science, 1999,8,921-929) were used.
(§6) After mixing 2.5 nM of the above-mentioned Regnase-1 and the compound, 2.5 nM of IKKβ or TBK1 was added and reacted at room temperature for two hours. Then, Anti FLAG AlphaLISA Acceptor Beads (manufactured by PerkinElmer) and Glutathione-coated AlphaScreen Donor Beads (manufactured by PerkinElmer) were added, and excited luminescence was measured using En Vision (manufactured by PerkinElmer). As the results, the inhibition rate from the signals obtained when adding the compound at each concentration were calculated, by defining the signal obtained with Regnase-1 alone to be 100% inhibition rate, and the signal obtained when the same amount of solvent (DMSO) is added in place of the compound as 0% inhibition rate. The 50% inhibition concentration (μM) was calculated from the obtained dose response curve (Table 12).

For assay [5], the target named is T5, binding between IKKβ and full-length Regnase-1 (FL_Reg1) (Homo sapiens, UniProt Q5D1E8).
T5 construct: made in house; host or cells: Expi293 cells
T5 sequence (Q5D1E8 1-599): T1 sequence (Q5D1E8 1-599)
As to the kind of experiment: Inhibition of kinase-Regnase-1 binding by the compounds (AlphaScreen), IKKβ. The settings on record: Table 14; binding between IKKβ and Regnase-1; read-out: Binding inhibition FL_Reg1, 50% inhibition concentration (IKKβ). How it is done:
as §5, §6

In assay [6] the target is T6, full-length human Regnase-1 with a FLAG tag on the N-terminal side and a biotin ligase BirA recognition … (human, UniProt Q5D1E8 1-599, biotinylated at the BirA recognition sequence when required).
T6 sequence: T1 sequence (Q5D1E8 1-599)
As to the kind of experiment: cell-based or functional assay.

Assay [7] has as its target T7, C-terminal domain-deleted human Regnase-1 (amino acids 1 to 546) with N-terminal FLAG tag and C-terminal BirA … (human, UniProt Q5D1E8 1-546).
T7 sequence: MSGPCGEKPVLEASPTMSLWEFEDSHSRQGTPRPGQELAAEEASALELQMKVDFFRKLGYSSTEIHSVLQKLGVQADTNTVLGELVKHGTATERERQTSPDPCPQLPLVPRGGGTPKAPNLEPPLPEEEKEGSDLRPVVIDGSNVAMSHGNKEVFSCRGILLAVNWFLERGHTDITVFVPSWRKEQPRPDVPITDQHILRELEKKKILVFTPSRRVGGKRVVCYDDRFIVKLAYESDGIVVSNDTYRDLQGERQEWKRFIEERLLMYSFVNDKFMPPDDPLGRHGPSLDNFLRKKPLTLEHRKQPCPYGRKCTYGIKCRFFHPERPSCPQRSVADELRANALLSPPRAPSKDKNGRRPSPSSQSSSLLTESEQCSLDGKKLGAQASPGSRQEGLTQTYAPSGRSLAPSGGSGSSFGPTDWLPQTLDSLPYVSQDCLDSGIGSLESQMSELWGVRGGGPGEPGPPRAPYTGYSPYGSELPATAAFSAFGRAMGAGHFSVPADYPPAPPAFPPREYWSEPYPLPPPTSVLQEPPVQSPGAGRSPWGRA
In words: cell-based or functional assay.

The target in assay [8] is T6, full-length human Regnase-1 with a FLAG …. In words: cell-based or functional assay. This is another data set of the same source.
Assay [9] deals with T7, C-terminal domain-deleted human …. As to the kind of experiment: cell-based or functional assay. The source holds these as a separate data set.
Assay [10] deals with T8, C-terminal human Regnase-1 (amino acids 301 to 599) with N-terminal FLAG tag and C-terminal BirA recognition … (human, UniProt Q5D1E8 301-599).
T8 sequence: T2 sequence (Q5D1E8 301-599)
In words: cell-based or functional assay.

For assay [11], the target named is T6, full-length human Regnase-1 with a FLAG …. As to the kind of experiment: cell-based or functional assay. This is another data set of the same source.
Assay [12] deals with T7, C-terminal domain-deleted human …. In words: cell-based or functional assay. The source holds these as a separate data set.
Assay [13] has as its target T8, C-terminal human Regnase-1 (amino acids …). As to the kind of experiment: cell-based or functional assay. This is another data set of the same source.

Where two headings read alike, the source gives them in different places. Residues, ends and D or L forms follow the SMILES beside them.

Regarding `CC[C@H](C)[C@@H]1NC(=O)[C@H](C)NC(=O)[C@H](CCCNC(=N)N)NC(=O)[C@H](Cc2ccc(O)cc2)NC(=O)[C@H](Cc2ccc(O)cc2)NC(=O)[C@H](C)NC(=O)[C@H](CO)NC(=O)[C@H](CC(N)=O)NC(=O)[C@H](Cc2ccccc2)NC(=O)[C@H](CC(N)=O)NC(=O)[C@H](C)N(C)C(=O)C[C@@H](C(=O)N2CCCC2)NC(=O)[C@H](Cc2c[nH]c3ccccc23)NC1=O` [PP7] (HELM PEPTIDE1{[meA].N.F.N.S.A.Y.Y.R.A.I.W.D.[C1CCN([*:1])C1]}$PEPTIDE1,PEPTIDE1,1:R1-13:R3$$$V2.0), the IC50 is 2.2 µM in assay [1]; 4.6 µM in assay [2]; 0.8 µM in [3]; 17.9 µM in [4]; 15.1 µM in [5].

B1: PP6 (peptide)
peptide: XPNSSWFKIWD
HELM: PEPTIDE1{[C[C@H](C(=O)[*:2])N(C)[*:1]].P.N.S.S.W.F.K.I.W.D.[C1CCN([*:1])C1]}$PEPTIDE1,PEPTIDE1,1:R1-11:R3$$$V2.0
SMILES: CC[C@H](C)[C@@H]1NC(=O)[C@H](CCCCN)NC(=O)[C@H](Cc2ccccc2)NC(=O)[C@H](Cc2c[nH]c3ccccc23)NC(=O)[C@H](CO)NC(=O)[C@H](CO)NC(=O)[C@H](CC(N)=O)NC(=O)[C@@H]2CCCN2C(=O)[C@@H](C)N(C)C(=O)C[C@@H](C(=O)N2CCCC2)NC(=O)[C@H](Cc2c[nH]c3ccccc23)NC1=O
As for B1, the “50% inhibition concentration, Regnase-1 phosphorylation by IKKβ (AlphaScreen)” value in assay [6] is 17 µM; in assay [7] it was 20.3 µM; in assay [11], 17 µM; in assay [12], 20.3 µM; in assay [13] it was 17.5 µM. Besides, the “50% inhibition concentration, Regnase-1 phosphorylation by TBK1 (AlphaScreen)” value in [6] was 13.1 µM; in assay [7], 14.5 µM; in [8], 13.1 µM; in assay [9] it was 14.5 µM; in assay [10], 16.8 µM.

These data come from patent US20250018014A1, “METHOD FOR TREATING AND/OR PREVENTING REGNASE-1-RELATED DISEASE” (OSAKA UNIVERSITY, priority 2018, published 2025).
